Measured values: article PMC11527256
pKd: −log10 of the molar value.

Columns and labels:
[1] = molecular target: K48-linked di-UB (UniProt P0CG48); assay: ITC
[2] = molecular target: K48-linked tetra-UB (UniProt P0CG48); assay: ITC
[3] = molecular target: K48-linked tri-UB (UniProt P0CG48); assay: ITC
[4] = molecular target: K48-linked di-UB (UniProt P0CG48); assay: SEC-SAXS; complexes assembled at 170 μM, 1:1, in 20 mM HEPES pH 8.0, 150 mM NaCl, 1 mM TCEP; Superdex 75 10/300 increase coupled to SAXS (ESRF BM29)
[5] = molecular target: K48-linked tetra-UB (UniProt P0CG48); assay: as above
[6] = molecular target: K48-linked tri-UB (UniProt P0CG48); assay: as above
[7] = molecular target: K63-linked di-UB (UniProt P0CG48); assay: ITC
[8] = molecular target: K63-linked tetra-UB (UniProt P0CG48); assay: ITC
[9] = molecular target: K63-linked penta-UB (UniProt P0CG48); assay: ITC
[10] = molecular target: K48-linked penta-UB (UniProt P0CG48); assay: ITC
[11] = molecular target: K63-linked tri-UB (UniProt P0CG48); assay: ITC

Substance | pKd [1] | dH [1] [kcal/mol] | stoichiometry N [1] | pKd [2] | dH [2] [kcal/mol] | stoichiometry N [2] | pKd [3] | dH [3] [kcal/mol] | stoichiometry N [3] | further results
Cdu1^CA M149A/M153A variant (from UniProt B0B9A0 130-401) (enzyme) | 5.54 | 1.89 | 0.98 | 5.91 | 10.9 | 0.95 | 5.75 | 6.4 | 1.01 | –
Cdu1^CA Q384A/A385R variant (from UniProt B0B9A0 130-401) (enzyme) | 5.46 | 3.89 | 0.96 | 5.85 | 7.86 | 1.14 | 5.78 | 7.7 | 1.04 | –
Cdu1^CA, catalytically inactive Cdu1(130-401) with C345 mutated to Ala (from UniProt B0B9A0 130-401) (enzyme) | 5.59 | 3.67 | 1.02 | 6.51 | 9.63 | 0.99 | 6.10 | 7.05 | 1.01 | stoichiometry N [4]: 1; stoichiometry N [5]: 1; stoichiometry N [6]: 1; pKd [7]: 5.60; dH [7]: 5.99 kcal/mol; stoichiometry N [7]: 0.92; pKd [8]: 5.35; dH [8]: 9.93 kcal/mol; stoichiometry N [8]: 1.6; pKd [9]: 5.18; dH [9]: 10.9 kcal/mol; stoichiometry N [9]: 2.3; pKd [10]: 6.55; dH [10]: 10 kcal/mol; stoichiometry N [10]: 0.99; pKd [11]: 5.52; dH [11]: 7.34 kcal/mol; stoichiometry N [11]: 1.24
